Read-outs that look alike come from different tables or passages of the source.
Key:
[1] = target: T1, Tetanus neurotoxin (TeNT), authentic tetanus holotoxin (Clostridium tetani, UniProt P04958 2-1315)
[2] = target: dog IgG (chrompure dog IgG) (dog)
[3] = target: dog IgG (chrompure dog IgG) (dog); remark: listed apart in the source
Cat albumin = target: T2, Cat albumin (cat, UniProt P49064 25-608); test: BLI (Octet Red96), SDA on Ni-NTA sensor, albumin as analyte
T2 construct: also called Feline albumin; Feline Alb

Horse albumin = target: T3, Horse albumin (horse, UniProt P35747 25-607); test: as above
T3 construct: also called Equine albumin; Equine Alb

Dog albumin = target: T4, Dog albumin (dog, UniProt P49822 25-608); test: as above
T4 construct: also called Canine albumin; Canine Alb

[4] = target: T1, Tetanus neurotoxin (TeNT), authentic …; test: BLI (Octet Red96), biotinylated SDA on SA sensor, TeNT as analyte
[5] = target: T5, tetanus neurotoxin (TeNT), authentic tetanus holotoxin (Clostridium tetani, UniProt P04958 2-1315); test: GT1b-TeNT inhibition ELISA
[6] = target: T5, tetanus neurotoxin (TeNT), authentic …; test: GT1b-TeNT inhibition ELISA; remark: listed apart in the source
[7] = target: T5, tetanus neurotoxin (TeNT), authentic …; test: bridging ELISA: coated TeNT, SDA, biotinylated TeNT, StrepPO (bivalent binding)
[8] = target: T5, tetanus neurotoxin (TeNT), authentic …; test: ELISA: directly coated TeNT, goat anti-llama Ig PO
[9] = target: T5, tetanus neurotoxin (TeNT), authentic …; test: ELISA: directly coated TeNT, anti-his6 PO
[10] = target: T5, tetanus neurotoxin (TeNT), authentic …; test: ELISA: directly coated TeNT, goat anti-llama Ig PO; remark: listed apart in the source
[11] = target: T5, tetanus neurotoxin (TeNT), authentic …; test: bridging ELISA: coated TeNT, SDA, biotinylated TeNT, StrepPO (bivalent binding); remark: listed apart in the source
[12] = target: T5, tetanus neurotoxin (TeNT), authentic …; test: ELISA: directly coated TeNT, anti-his6 PO; remark: listed apart in the source
human serum albumin [13] = target: T6, human serum albumin (human, UniProt P02768 25-609); test: ELISA, E. coli supernatant
T6 construct: mature; also called human Alb

human serum albumin [14] = target: T6, human serum albumin; test: ELISA, coated albumin, E. coli supernatant
[15] = target: T5, tetanus neurotoxin (TeNT), authentic …; test: BLI (Octet Red96); avidity (bivalent for TeNT); format for this SDA not told

B1: SVT15-3FW4M-GS2-SVG13M4-H6 (bispecific antibody)
chain: QVQLQESGGGLVQTGGSLRLSCRASGRAFANYHFGWFRQAPGKDREFVASISWKGGSTYYANFALGRFTSSVDRAESSVYLQMSGLTPEDTATYYCAAHDGGDWNYHTGMDYWGQGTQVTVSSGGGGSGGGSEVQLVESGGGLVQPGGSLRLSCEASGFTFDDYGMSWVRQAPGKGLEWVSSLTPNGGSTYYADSVKGRFTISRDNAKNTLYLQMNSLKPEDTALYYCAKNSYYGAMDYWGQGTQVTVSSHHHHHH
[1]
  Kd: 0.0209 nM
  koff: 8.15e-06 s⁻¹
  kon: 390000 M⁻¹ s⁻¹

B2: SVT06-SVT16-L123Q-GS2-SVG13M4-H6 (bispecific antibody)
chain: QVQLQESGGGSVQAGGSLRLSCTASELSYDDYTIAWFRRAAGEGRVEDGEGVASITKSYDRAYDNKINYGHSVKGRFTISRDNAKNTVYLQMTDLLPSDTAVYYCALDITPPGGVGASLTEGFLFDYWGQGTQVTVSSQVQLQESGGGSVQAGDSLRLSCAASGRTISNYAMGWFRQAPGKQREFVAAISRSDNTYYTDSVKGRFTISRDNAKNTLYLQMNSLKPEETAVYYCAADPNLMYESKWKYRALEAWGQGTQVTVSSGGGGSGGGSEVQLVESGGGLVQPGGSLRLSCEASGFTFDDYGMSWVRQAPGKGLEWVSSLTPNGGSTYYADSVKGRFTISRDNAKNTLYLQMNSLKPEDTALYYCAKNSYYGAMDYWGQGTQVTVSSHHHHHH
notes: also called pRL501
[2]
  maximal absorbance value: 0.78 A450
[3]
  Effective SDA Concentration at A450 0.2: 134 ng/mL

B3: SVA06L (VHH)
VHH: QVQLQESGGRLVQAEDSLRLSCAASGRTFVSYDMGWFRQAPGKEREFVAAINWRGYTTDYVDSVKGRFFISRDIAKSTVYLQMNNLKPEDTAVYYCAARQMSGSSRYSPPGRVGYDFWGQGTQVTVSS
Cat albumin
  Kd: 1.2 nM
  koff: 0.000878 s⁻¹
  kon: 729000 M⁻¹ s⁻¹
Horse albumin
  Kd: 13.5 nM
  koff: 0.00977 s⁻¹
  kon: 726000 M⁻¹ s⁻¹
Dog albumin
  Kd: 3.16 nM
  koff: 0.00224 s⁻¹
  kon: 711000 M⁻¹ s⁻¹

B4: SVT06L (VHH)
VHH: QVQLQESGGGSVQAGGSLRLSCTASELSYDDYTIAWFRRAAGEGRVEDGEGVASITKSYDRAYDNKINYGHSVKGRFTISRDNAKNTVYLQMTDLLPSDTAVYYCALDITPPGGVGASLTEGFLFDYWGQGTQVTVSS
[4]
  Kd: 0.224 nM
  koff: 0.000113 s⁻¹
  kon: 503000 M⁻¹ s⁻¹

B5: SVT15L (VHH)
VHH: QVQLQESGGGLVQTGGSLRLSCRASGRAFANYHFGWFRQAPGKDREFVASISWKGGSTYYANFALGRFTSSVDRAESSVYLQMSGLTPEDTATYYCAAHDGGDWNYHTGMDYWGKGILVTVSS
[4]
  Kd: 0.772 nM
  koff: 8.57e-05 s⁻¹
  kon: 111000 M⁻¹ s⁻¹

B6: SVT16-L123Q-GS2-SVG13M4-H6 (bispecific antibody)
chain: QVQLQESGGGSVQAGDSLRLSCAASGRTISNYAMGWFRQAPGKQREFVAAISRSDNTYYTDSVKGRFTISRDNAKNTLYLQMNSLKPEETAVYYCAADPNLMYESKWKYRALEAWGQGTQVTVSSGGGGSGGGSEVQLVESGGGLVQPGGSLRLSCEASGFTFDDYGMSWVRQAPGKGLEWVSSLTPNGGSTYYADSVKGRFTISRDNAKNTLYLQMNSLKPEDTALYYCAKNSYYGAMDYWGQGTQVTVSSHHHHHH
[2]
  maximal absorbance value: 0.69 A450
[3]
  Effective SDA Concentration at A450 0.2: 127 ng/mL

B7: SVG06L (VHH)
VHH: QVQLQESGGALVQPGGSLRLSCAASGFPFSAYDMTWVRQAPGQGLEWVSTIHKSGGITTYADSVKGRFTISRDNAKNTLYLQMNNLESEDTAVYYCAKALRAHNSDYVGRNALGSWGEGTLVTVSS
[5]
  minimal absorbance value (GT1b-TeNT inhibition): 0.8 A450
[6]
  Effective SDA Concentration at A450 0.56: > 1000 ng/mL
[7]
  maximal absorbance value: 0.14 A450
[8]
  Effective SDA Concentration at A450 0.15: > 1000 ng/mL
[9]
  Effective SDA Concentration at A450 0.15: > 1000 ng/mL
  binding result: no binding (tested: 1000 ng/ml (A450 0.15 not reached))
[10]
  maximal absorbance value: 0.07 A450
[11]
  Effective SDA Concentration at A450 0.3: > 1000 ng/mL
[2]
  maximal absorbance value: 0.56 A450
[12]
  maximal absorbance value: 0.05 A450
[3]
  Effective SDA Concentration at A450 0.2: 164 ng/mL

B8: SVA04 (VHH, not shown: large carriers)
VHH: QVQLQQSGGGLVQAGGSLRLACAASGRTLSSYVMGWFRQAPGKEREFVAAISWSGGSTYYADSVKGRFTISRDNAKNTVYLQMNSLKPEDTAVYYCAATLRGSNRYYSGRVYDYWGQGTQVTVSS
Human serum albumin [13]
  binding result: no binding
Human serum albumin [14]
  absorbance at 450 nm: 0.085 A450

B9: SVT06-GS3-SVT02-GS2-SVG06M4-H6 (bispecific antibody)
chain: QVQLQESGGGSVQAGGSLRLSCTASELSYDDYTIAWFRRAAGEGRVEDGEGVASITKSYDRAYDNKINYGHSVKGRFTISRDNAKNTVYLQMTDLLPSDTAVYYCALDITPPGGVGASLTEGFLFDYWGQGTQVTVSSGGGGSGGGGSGGGGSQVQLQQSGGGSVQAGGSLRLSCVGPQRTFSTYGMGWFRQAPGKEREFVAGINYKGDTTYYADSVKGRFTISRDNAKNTLYLQMDSLKPEDRAVYQCARKGGLGGDYRDAGQYRYWGQGTQVTVSSGGGGSGGGSEVQLVESGGALVQPGGSLRLSCAASGFPFSAYDMTWVRQAPGQGLEWVSTIHKSGGITTYADSVKGRFTISRDNAKNTLYLQMNNLESEDTAVYYCAKALRAHNSDYVGRNALGSWGQGTQVTVSSHHHHHH
[15]
  Kd: 0.13 nM
  koff: 4.27e-05 s⁻¹
  kon: 329000 M⁻¹ s⁻¹

Source: patent publication US20240376185A1 (SMIVET B V, published 2024)
